The target in experiment [1] is T1, recombinant human sPLA2-V (human, UniProt P39877 21-138).
T1 construct: The cDNA for the mature enzyme was cloned in frame to an initiator Met codon; also called hGV; human PLA2-V
T1 sequence: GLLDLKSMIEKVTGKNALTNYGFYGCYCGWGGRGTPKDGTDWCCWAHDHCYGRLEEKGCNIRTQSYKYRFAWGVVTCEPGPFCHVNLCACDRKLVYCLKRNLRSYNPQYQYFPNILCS
Description: indirect ELISA on coated recombinant human sPLA2-V, anti-mouse IgG-HRP detection, one-site saturation fit.

Experiment [2] concerns the target T1, recombinant human sPLA2-V. Description: indirect ELISA on coated recombinant human sPLA2-V, one-site saturation fit (relative Kd).
Experiment [3] concerns the target T1, recombinant human sPLA2-V. Description: indirect ELISA on coated recombinant human sPLA2-V, streptavidin-HRP detection, one-site saturation fit.

Four molecules from patent publication US20140356379A1 (CENTRE NATIONAL DE LA RECHERCHE SCIENTIQUE CNRS, published 2014) can be followed below.

B1: 19F3 antibody (antibody, V domains shown)
VH: EVQLQLSGADLVKPGASVKLSCTASGFNIKDSYIHWVKQRPEPGLEWIGRIDPANGNTKYDPKFQGKATITADTSSNTAYLQLTSLTSEDTAVYYCARDVVALDYWGQGTTLTVSS
VL: QIVLTQSPAIMSASPGEKVTMTCSASSSVSYMYWYQQKPGSSPRLLIYDTSNLASGVPVRFSGSGSGTSYSLTISRMEAEDAATYYCQQWSSYPLTFGAGTKLELKR
notes: also called mAb #19F3; hybridoma CNCM I-4522
With B1, the results for the Kd in experiment [1] and in experiment [2] were 0.089 nM and 0.0842 nM, respectively.

B2: biotinylated monoclonal antibody #18G6 (antibody, V domains shown)
VH: QVQLQQSGPELVKPGASVKMSCKASGYTFTDYVITWVKQRTGQGLEWIGEIYPGSGSTYYDEKFKGKATLTADKSSNTAYMQLSSMTSEDSAVYFCARWFPYFDYWGQGTTLTVSS
VL: QIVLTQSPAIMSASPGEKVTISCSASSSVSYMYWYQQKPGSSPKPWIYRTSNLASGVPARFSGSGSGTSYSLTISSMEAEDAATYYCQQYHSYPLTFGAGTKLELKR
modifications: biotinylated with a Pierce kit (ref. 21435); sites not stated
notes: also called #18G6-Biot; 18G6-Biot
As for B2, the Kd in experiment [3] was 0.31 nM.

B3: biotinylated monoclonal antibody #19F3 (antibody, V domains shown)
VH: EVQLQLSGADLVKPGASVKLSCTASGFNIKDSYIHWVKQRPEPGLEWIGRIDPANGNTKYDPKFQGKATITADTSSNTAYLQLTSLTSEDTAVYYCARDVVALDYWGQGTTLTVSS
VL: QIVLTQSPAIMSASPGEKVTMTCSASSSVSYMYWYQQKPGSSPRLLIYDTSNLASGVPVRFSGSGSGTSYSLTISRMEAEDAATYYCQQWSSYPLTFGAGTKLELKR
modifications: biotinylated with a Pierce kit (ref. 21435); sites not stated
notes: also called #19F3-Biot; 19F3-Biot
In the case of B3, the Kd in experiment [3] came to 0.0082 nM.

B4: 18G6 antibody (antibody, V domains shown)
VH: QVQLQQSGPELVKPGASVKMSCKASGYTFTDYVITWVKQRTGQGLEWIGEIYPGSGSTYYDEKFKGKATLTADKSSNTAYMQLSSMTSEDSAVYFCARWFPYFDYWGQGTTLTVSS
VL: QIVLTQSPAIMSASPGEKVTISCSASSSVSYMYWYQQKPGSSPKPWIYRTSNLASGVPARFSGSGSGTSYSLTISSMEAEDAATYYCQQYHSYPLTFGAGTKLELKR
notes: also called mAb #18G6; hybridoma CNCM I-4521
On to B4, for which the figures for the Kd in experiment [1] and in experiment [2] were 0.53 nM and 0.305 nM, respectively.
